How the values were obtained:
[1] = target: T1, XS-VWF(AA) (XS-VWF with Y1605-M1606 replaced by A1605-A1606)
T1 chain: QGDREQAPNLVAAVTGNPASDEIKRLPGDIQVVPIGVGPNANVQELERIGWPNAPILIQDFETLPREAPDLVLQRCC

[2] = target: Multimeric human plasma VWF
[3] = target: T2, XS-VWF (Venus - VWF 1594-1670 - Cerulean - His tag FRET protein)
T2 chain: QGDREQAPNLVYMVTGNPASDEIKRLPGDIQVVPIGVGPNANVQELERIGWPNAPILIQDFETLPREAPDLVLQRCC

[4] = target: T3, M-VWF (Venus - VWF 1530-1670 - Cerulean - His tag FRET protein)
T3 chain: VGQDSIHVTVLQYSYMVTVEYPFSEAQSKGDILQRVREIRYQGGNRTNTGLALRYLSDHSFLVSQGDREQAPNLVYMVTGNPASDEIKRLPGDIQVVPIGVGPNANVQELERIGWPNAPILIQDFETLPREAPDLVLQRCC

[5] = target: Mutant VWF-A2 FRET protein with Cysteine to Glycine at positions 1669 and 1670 (CC1669-70GG)
[6] = target: Mutant VWF-A2 FRET protein with a change at Pro1645 (P1645A)
[7] = target: T4, S-VWF (Venus - VWF 1558-1670 - Cerulean - His tag FRET protein)
T4 chain: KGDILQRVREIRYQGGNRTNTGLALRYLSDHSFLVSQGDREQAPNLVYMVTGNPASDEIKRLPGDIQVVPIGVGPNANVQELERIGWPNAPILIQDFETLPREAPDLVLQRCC

[8] = target: T5, L-VWF (Venus - VWF 1496-1670 - Cerulean - His tag FRET protein)
T5 chain: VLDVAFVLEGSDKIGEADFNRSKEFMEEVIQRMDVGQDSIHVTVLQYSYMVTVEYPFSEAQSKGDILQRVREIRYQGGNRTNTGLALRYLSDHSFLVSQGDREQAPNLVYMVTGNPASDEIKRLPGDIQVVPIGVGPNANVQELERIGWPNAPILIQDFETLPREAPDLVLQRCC

B1: Recombinant human ADAMTS13 (protein)
chain: AAGGILHLELLVAVGPDVFQAHQEDTERYVLTNLNIGAELLRDPSLGAQFRVHLVKMVILTEPEGAPNITANLTSSLLSVCGWSQTINPEDDTDPGHADLVLYITRFDLELPDGNRQVRGVTQLGGACSPTWSCLITEDTGFDLGVTIAHEIGHSFGLEHDGAPGSGCGPSGHVMASDGAAPRAGLAWSPCSRRQLLSLLSAGRARCVWDPPRPQPGSAGHPPDAQPGLYYSANEQCRVAFGPKAVACTFAREHLDMCQALSCHTDPLDQSSCSRLLVPLLDGTECGVEKWCSKGRCRSLVELTPIAAVHGRWSSWGPRSPCSRSCGGGVVTRRRQCNNPRPAFGGRACVGADLQAEMCNTQACEKTQLEFMSQQCARTDGQPLRSSPGGASFYHWGAAVPHSQGDALCRHMCRAIGESFIMKRGDSFLDGTRCMPSGPREDGTLSLCVSGSCRTFGCDGRMDSQQVWDRCQVCGGDNSTCSPRKGSFTAGRAREYVTFLTVTPNLTSVYIANHRPLFTHLAVRIGGRYVVAGKMSISPNTTYPSLLEDGRVEYRVALTEDRLPRLEEIRIWGPLQEDADIQVYRRYGEEYGNLTRPDITFTYFQPKPRQAWVWAAVRGPCSVSCGAGLRWVNYSCLDQARKELVETVQCQGSQQPPAWPEACVLEPCPPYWAVGDFGPCSASCGGGLRERPVRCVEAQGSLLKTLPPARCRAGAQQPAVALETCNPQPCPARWEVSEPSSCTSAGGAGLALENETCVPGADGLEAPVTEGPGSVDEKLPAPEPCVGMSCPPGWGHLDATSAGEKAPSPWGSIRTGAQAAHVWTPAAGSCSVSCGRGLMELRFLCMDSALRVPVQEELCGLASKPGSRREVCQAVPCPARWQYKLAACSVSCGRGVVRRILYCARAHGEDDGEEILLDTQCQGLPRPEPQEACSLEPCPPRWKVMSLGPCSASCGLGTARRSVACVQLDQGQDVEVDEAACAALVRPEASVPCLIADCTYRWHVGTWMECSVSCGDGIQRRRDTCLGPQAQAPVPADFCQHLPKPVTVRGCWAGPCVGQGTPSLVPHEEAAAPGRTTATPAGASLEWSQARGLLFSPAPQPRRLLPGPQENSVQSSACGRQHLEPTGTIDMRGPGQADCAVAIGRPLGEVVTLRVLESSLNCSAGDMLLLWGRLTWRKMCRKLLDMTFSSKTNTLVVRQRCGRPGGGVLLRYGSQLAPETFYRECDMQLFGPWGEIVSPSLSPATSNAGGCRLFINVAPHARIAIHALATNMGAGTEGANASYILIRDTHSLRTTAFHGQQVLYWESESSQAEMEFSEGFLKAQASLRGQYWTLQSWVPEMQDPQSWKGKEGT
FRET ratio after 1 h with ADAMTS13, no denaturant [1]: There was very little change in the FRET ratio of ... XS-VWF(AA) | cleavage, western blot with anti-his pAb [1]: XS-VWF but not XS-VWF(AA) was cleaved by recombinant ADAMTS13 | cleavage after pre-denaturation with 4M urea, western blot [2]: Proteolysis was however complete at urea>2.4M, provided a pre-denaturation step was included | cleavage without pre-denaturation, western blot [2]: multimeric VWF was also not fully cleaved when the protein was incubated with varying urea concentrations and ADAMTS13 | FRET ratio after 1 h with ADAMTS13, no denaturant [3]: FRET ratio increased from 0.78 to 1.73 for XS-VWF | cleavage, western blot with anti-his pAb [3]: XS-VWF but not XS-VWF(AA) was cleaved by recombinant ADAMTS13 | extent of cleavage (FRET ratio and western blot), varying urea [3]: Complete cleavage of XS-VWF and S-VWF was observed at urea concentrations <2.8M | FRET ratio after 1 h with ADAMTS13, no denaturant [4]: There was very little change in the FRET ratio of M-VWF | extent of cleavage, no urea [4]: In the absence of urea, the extent of cleavage of both L- and M-VWF was 20% | proteolysis at 1.6M urea [4]: Increasing urea concentration to 1.6M resulted in 30% proteolysis | cleavage in 1M urea, western blot [5]: substitution of Cysteine by Glycine at positions 1669 and 1670 enhances VWF A2 domain proteolysis | cleavage in 1M urea, western blot [6]: changes in the Pro1645 site enhances VWF cleavage even in the presence of low concentrations of urea that are insufficient to cleave the wild-type protein | FRET ratio after 1 h with ADAMTS13, no denaturant [7]: from 1.24 to 1.84 for S-VWF | extent of cleavage (FRET ratio and western blot), varying urea [7]: Complete cleavage of XS-VWF and S-VWF was observed at urea concentrations <2.8M | FRET ratio after 1 h with ADAMTS13, no denaturant [8]: There was very little change in the FRET ratio of ... L-VWF | cleavage at 2M urea after pre-denaturation with 4M urea [8]: >90% cleavage of L-VWF was observed at 2M urea upon inclusion of the pre-denaturation step | extent of cleavage, no urea [8]: In the absence of urea, the extent of cleavage of both L- and M-VWF was 20% | proteolysis at 1.6M urea [8]: Increasing urea concentration to 1.6M resulted in 30% proteolysis

B2: ADAMTS13 in human plasma (protein)
chain: AAGGILHLELLVAVGPDVFQAHQEDTERYVLTNLNIGAELLRDPSLGAQFRVHLVKMVILTEPEGAPNITANLTSSLLSVCGWSQTINPEDDTDPGHADLVLYITRFDLELPDGNRQVRGVTQLGGACSPTWSCLITEDTGFDLGVTIAHEIGHSFGLEHDGAPGSGCGPSGHVMASDGAAPRAGLAWSPCSRRQLLSLLSAGRARCVWDPPRPQPGSAGHPPDAQPGLYYSANEQCRVAFGPKAVACTFAREHLDMCQALSCHTDPLDQSSCSRLLVPLLDGTECGVEKWCSKGRCRSLVELTPIAAVHGRWSSWGPRSPCSRSCGGGVVTRRRQCNNPRPAFGGRACVGADLQAEMCNTQACEKTQLEFMSQQCARTDGQPLRSSPGGASFYHWGAAVPHSQGDALCRHMCRAIGESFIMKRGDSFLDGTRCMPSGPREDGTLSLCVSGSCRTFGCDGRMDSQQVWDRCQVCGGDNSTCSPRKGSFTAGRAREYVTFLTVTPNLTSVYIANHRPLFTHLAVRIGGRYVVAGKMSISPNTTYPSLLEDGRVEYRVALTEDRLPRLEEIRIWGPLQEDADIQVYRRYGEEYGNLTRPDITFTYFQPKPRQAWVWAAVRGPCSVSCGAGLRWVNYSCLDQARKELVETVQCQGSQQPPAWPEACVLEPCPPYWAVGDFGPCSASCGGGLRERPVRCVEAQGSLLKTLPPARCRAGAQQPAVALETCNPQPCPARWEVSEPSSCTSAGGAGLALENETCVPGADGLEAPVTEGPGSVDEKLPAPEPCVGMSCPPGWGHLDATSAGEKAPSPWGSIRTGAQAAHVWTPAAGSCSVSCGRGLMELRFLCMDSALRVPVQEELCGLASKPGSRREVCQAVPCPARWQYKLAACSVSCGRGVVRRILYCARAHGEDDGEEILLDTQCQGLPRPEPQEACSLEPCPPRWKVMSLGPCSASCGLGTARRSVACVQLDQGQDVEVDEAACAALVRPEASVPCLIADCTYRWHVGTWMECSVSCGDGIQRRRDTCLGPQAQAPVPADFCQHLPKPVTVRGCWAGPCVGQGTPSLVPHEEAAAPGRTTATPAGASLEWSQARGLLFSPAPQPRRLLPGPQENSVQSSACGRQHLEPTGTIDMRGPGQADCAVAIGRPLGEVVTLRVLESSLNCSAGDMLLLWGRLTWRKMCRKLLDMTFSSKTNTLVVRQRCGRPGGGVLLRYGSQLAPETFYRECDMQLFGPWGEIVSPSLSPATSNAGGCRLFINVAPHARIAIHALATNMGAGTEGANASYILIRDTHSLRTTAFHGQQVLYWESESSQAEMEFSEGFLKAQASLRGQYWTLQSWVPEMQDPQSWKGKEGT
KM [3]: 4.6 µM and KM=4 µM | kcat [3]: 44.8 min⁻¹ | cleavage by FRET, 20% human plasma, 2 hours, 2M urea [5]: higher cleavage of mutant VWF proteins compared to the wild-type molecule upon addition of low concentrations of urea | cleavage by FRET, 20% human plasma, 2 hours, 2M urea [6]: higher cleavage of mutant VWF proteins compared to the wild-type molecule upon addition of low concentrations of urea | KM [7]: 1.8 µM | kcat [7]: 17.7 min⁻¹

Reference: patent US20130078661
